In patent US20250002610A1 (Genmab, published 2025) one finds EC50 data, which are given here for 2 molecules.

A word on the EC50: it is the concentration giving half of the maximal effect.

Assay [1] has as its target T1, human FAPα (Fibroblast activation protein alpha), cell surface expressed (human, UniProt Q12884 1-760).
T1 construct: Endogenous on human lung fibroblasts and CAFs
T1 sequence: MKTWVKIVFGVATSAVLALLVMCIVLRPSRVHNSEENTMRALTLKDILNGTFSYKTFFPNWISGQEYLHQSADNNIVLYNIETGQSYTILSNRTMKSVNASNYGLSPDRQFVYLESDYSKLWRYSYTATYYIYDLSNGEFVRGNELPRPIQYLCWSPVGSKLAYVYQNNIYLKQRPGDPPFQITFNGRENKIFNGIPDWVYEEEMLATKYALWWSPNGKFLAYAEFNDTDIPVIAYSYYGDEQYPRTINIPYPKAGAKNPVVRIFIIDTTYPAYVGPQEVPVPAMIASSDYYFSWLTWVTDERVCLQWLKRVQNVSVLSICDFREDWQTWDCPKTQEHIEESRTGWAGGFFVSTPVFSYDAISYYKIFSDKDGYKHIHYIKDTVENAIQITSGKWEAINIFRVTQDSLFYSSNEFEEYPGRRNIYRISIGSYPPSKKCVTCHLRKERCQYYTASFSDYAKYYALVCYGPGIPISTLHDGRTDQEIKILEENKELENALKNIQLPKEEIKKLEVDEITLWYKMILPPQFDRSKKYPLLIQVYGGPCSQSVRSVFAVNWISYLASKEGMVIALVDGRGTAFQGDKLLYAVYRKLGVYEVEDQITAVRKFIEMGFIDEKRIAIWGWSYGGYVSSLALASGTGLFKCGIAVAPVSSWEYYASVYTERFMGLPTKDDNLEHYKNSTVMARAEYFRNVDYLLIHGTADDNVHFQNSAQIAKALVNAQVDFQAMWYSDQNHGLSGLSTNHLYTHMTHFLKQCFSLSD
The assay can be described thus: flow cytometry, CAFs, n = 1. As for the experimental part: (§1) Binding of bispecific or monoclonal antibodies carrying the anti-FAPα arm derived from IgG1-FAPα-FERL (BisG1-FAPα-FERL/DR4-FERR, BisG1-FAPα-FERL/b12-FERR, and IgG1-FAPα-FERL) to cell surface expressed human FAPα was analyzed by flow cytometry using human lung fibroblasts and CAFs, which endogenously express FAPα. BisG1-b12-FERL/b12-FERR was used as negative control.
(§2) Human lung fibroblasts and CAFs (50,000 cells/well) were seeded in 96-Well round bottom plates (Greiner Bio-one, Cat #650101). Antibody dilutions were prepared using fluorescence-activated cell sorting (FACS) buffer, consisting of phosphate buffer saline (PBS, Lonza, Cat #BE17-517Q)+1% Bovine Serum Albumin (BSA, Roche, Cat #10735086001)+0.02% Sodium Azide (Bio-World, Cat #41920044-3). Plates were centrifuged, supernatant was removed, cells were resuspended in 50 μL of human Fc Block (BD, Cat #564220, diluted 1:100 in FACS buffer) and 50 μL of viability stain TO-PRO-3 Iodide (Thermo Fisher, Cat #T3605, diluted 1: 25,000 in FACS buffer), and incubated for 15 min at 4° C. Plates were washed three times with FACS buffer. […] Antibody binding to viable cells (TO-PRO-3 negative) was analyzed by flow cytometry on a FACSCelesta™ (BD biosciences) and data were processed using FlowJo_v10.8.1 (FlowJo LLC). Geomean fluorescence intensity, gMFI, was determined and visualized using GraphPad Prism.
(In general: Flow cytometry measures light scatter and fluorescence of single cells or particles in a stream.)

Assay [2] has as its target T1, human FAPα (Fibroblast activation …). The assay can be described thus: flow cytometry, CAFs, n = 3. Here is the method:
as §1, §2

B1: BisG1-FAPα-FERL/DR4-FERR (bispecific antibody, human IgG1, kappa, lambda)
heavy 1: EVQLLESGGGLVQPGGSPRLSCEASGFTFSSYALSWVRQAPGKGLEWVSAISGSGGGRYYADSVKGRFTISRDNSKNTLFLQMNSLRAEDTAVYYCAKEGYSSSGTYWDHWGQGTLVTVSSASTKGPSVFPLAPSSKSTSGGTAALGCLVKDYFPEPVTVSWNSGALTSGVHTFPAVLQSSGLYSLSSVVTVPSSSLGTQTYICNVNHKPSNTKVDKRVEPKSCDKTHTCPPCPAPEFERGPSVFLFPPKPKDTLMISRTPEVTCVVVDVSHEDPEVKFNWYVDGVEVHNAKTKPREEQYNSTYRVVSVLTVLHQDWLNGKEYKCKVSNKALPAPIEKTISKAKGQPREPQVYTLPPSREEMTKNQVSLTCLVKGFYPSDIAVEWESNGQPENNYKTTPPVLDSDGSFLLYSKLTVDKSRWQQGNVFSCSVMHEALHNHYTQKSLSLSPG
light 1: AIQMTQSPSSVSASVGDRVTITCRASQGVSSWLAWYQQKPGRAPKLLIYVASTLQSGVPSRFSGSGSGTDFTLTINSLQPEDFATYYCQQANSFPPTFGQGTRLEMKRTVAAPSVFIFPPSDEQLKSGTASVVCLLNNFYPREAKVQWKVDNALQSGNSQESVTEQDSKDSTYSLSSTLTLSKADYEKHKVYACEVTHQGLSSPVTKSFNRGEC
heavy 2: QVQLQESGPGLVKPSGTLSLTCAVSGGSISSYSWWSWIRQPPGKGLEWIGELYHSGSTNYNPSLKSRVTISVDKSKNQFSLKLRSVTAADTAVYYCVRGVATIDYWGQGTLVTVSSASTKGPSVFPLAPSSKSTSGGTAALGCLVKDYFPEPVTVSWNSGALTSGVHTFPAVLQSSGLYSLSSVVTVPSSSLGTQTYICNVNHKPSNTKVDKRVEPKSCDKTHTCPPCPAPEFERGPSVFLFPPKPKDTLMISRTPEVTCVVVDVSHEDPEVKFNWYVDGVEVHNAKTKPREEQYNSTYRVVSVLTVLHQDWLNGKEYKCKVSNKALPAPIEKTISKAKGQPREPQVYTLPPSREEMTKNQVSLTCLVKGFYPSDIAVEWESNGQPENNYKTTPPVLDSDGSFFLYSRLTVDKSRWQQGNVFSCSVMHEALHNHYTQKSLSLSPG
light 2: QSALTQPPSASGSPGQSVTISCTGTSSDVGGYNFVSWYQQDPGKAPKLLIYEVTKRPSGVPDRFSGSKSGNTASLTVSGLQAEDEADYYCSSYAGSNNVMFGGGTKLTVLGQPKAAPSVTLFPPSSEELQANKATLVCLISDFYPGAVTVAWKADSSPVKAGVETTTPSKQSNNKYAASSYLSLTPEQWKSHRSYSCQVTHEGSTVEKTVAPTECS
notes: Human IgG1 bispecific made by controlled Fab-arm exchange of IgG1-FAPα-FERL and IgG1-DR4-FERR; monovalent for FAPα and for DR4; also called GEN1057
For B1, the figures for the EC50 in assay [1] and in assay [2] were 0.159 mg/L and 0.211 mg/L, respectively.

B2: BisG1-FAPα-FERL/b12-FERR (bispecific antibody, human IgG1, kappa)
heavy 1: B1 heavy 1
light 1: B1 light 1
heavy 2: QVQLVQSGAEVKKPGASVKVSCQASGYRFSNFVIHWVRQAPGQRFEWMGWINPYNGNKEFSAKFQDRVTFTADTSANTAYMELRSLRSADTAVYYCARVGPYSWDDSPQDNYYMDVWGKGTTVIVSSASTKGPSVFPLAPSSKSTSGGTAALGCLVKDYFPEPVTVSWNSGALTSGVHTFPAVLQSSGLYSLSSVVTVPSSSLGTQTYICNVNHKPSNTKVDKRVEPKSCDKTHTCPPCPAPEFERGPSVFLFPPKPKDTLMISRTPEVTCVVVDVSHEDPEVKFNWYVDGVEVHNAKTKPREEQYNSTYRVVSVLTVLHQDWLNGKEYKCKVSNKALPAPIEKTISKAKGQPREPQVYTLPPSREEMTKNQVSLTCLVKGFYPSDIAVEWESNGQPENNYKTTPPVLDSDGSFFLYSRLTVDKSRWQQGNVFSCSVMHEALHNHYTQKSLSLSPG
light 2: EIVLTQSPGTLSLSPGERATFSCRSSHSIRSRRVAWYQHKPGQAPRLVIHGVSNRASGISDRFSGSGSGTDFTLTITRVEPEDFALYYCQVYGASSYTFGQGTKLERKRTVAAPSVFIFPPSDEQLKSGTASVVCLLNNFYPREAKVQWKVDNALQSGNSQESVTEQDSKDSTYSLSSTLTLSKADYEKHKVYACEVTHQGLSSPVTKSFNRGEC
Consider B2, for which the half-maximal effective concentration (EC50) in assay [1] stood at 0.183 mg/L; in assay [2], 0.218 mg/L.
